Biological target: T1, P-selectin glycoprotein ligand 1 (PSGL-1) with the O-bound glycan structure 6-sulfo N-acetyl lactosamine … (human, UniProt Q14242 42-412)
T1 construct: whole, on cells; also called slan
T1 sequence (looked up): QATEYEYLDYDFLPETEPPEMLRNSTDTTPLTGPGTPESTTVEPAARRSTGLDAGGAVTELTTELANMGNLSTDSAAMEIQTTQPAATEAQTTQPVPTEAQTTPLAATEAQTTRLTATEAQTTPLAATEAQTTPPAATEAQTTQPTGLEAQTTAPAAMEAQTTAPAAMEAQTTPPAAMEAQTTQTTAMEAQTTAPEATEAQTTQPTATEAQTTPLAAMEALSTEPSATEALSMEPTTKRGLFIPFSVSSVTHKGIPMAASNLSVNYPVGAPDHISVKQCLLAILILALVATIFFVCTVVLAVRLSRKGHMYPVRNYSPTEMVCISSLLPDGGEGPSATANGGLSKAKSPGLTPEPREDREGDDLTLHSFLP
Test: affinity to slan-DCs; method not stated

Binder | Kd [pM] | fold higher affinity than DD2 or M-DC8 [fold]
monoclonal IgM antibody MB4 (antibody, V domains shown, also called anti-slan antibody MB4) VH: EVKLQESGPGLVQPSQSLSITCTVSGFSLTTYGVHWIRQSPGKGLEWLGVIWSGGGTDFNVAFMSRLSINKDNSKSQIFFKMNSLQANDTAIYYCARRTTNDGNYAFAYWGQGTLVTVS VL: DIVMTQSPLSLPVSLGDQASISCRSSQNILHSDGSTYLEWYLQKPGQSPKLLIYKVSNRFSGVPDRFSGSGSGTDFTLKISRVEAEDLGVYYCFQGSHVPWTFGGGTKLEIKR | 0.4 | ~25
monoclonal IgM antibody MB6 (antibody, V domains shown, also called anti-slan antibody MB6) VH: EVKLEQSGPGLVQLSQSLSITCTVSGFSLTTYGVHWIRQSPGKGLEWLGVIWSGGGTDFNVAFISRLSINKDNSKSQVFFKMNSLQANDTAIYYCARRTTNDGNYAFAYWGQGTLVTVS VL: DIVMTQSPLSLPVSLGDQASISCRSSQNILHSDGNTYLEWYLQKPGQSPKLLIYKVSNRFSGVPDRFSGSGSGTDFTLKISRVEAEDLGVYYCFQGSHVPWTFGGGTKLEIKR | 0.4 | ~25
